Measured values published in article PMC2821926, “Carboxy Terminal Tail of Polycystin-1 Regulates Localization of TSC2 to Repress mTOR” (PLoS ONE, 2010).

Target: T1, GST-14-3-3β (UniProt P31946 1-246)
T1 construct: 14-3-3 beta; also called 14-3-3 proteins; source: E. coli DH5α (pGEX), batch-purified on glutathione Sepharose 4B beads
T1 sequence (looked up): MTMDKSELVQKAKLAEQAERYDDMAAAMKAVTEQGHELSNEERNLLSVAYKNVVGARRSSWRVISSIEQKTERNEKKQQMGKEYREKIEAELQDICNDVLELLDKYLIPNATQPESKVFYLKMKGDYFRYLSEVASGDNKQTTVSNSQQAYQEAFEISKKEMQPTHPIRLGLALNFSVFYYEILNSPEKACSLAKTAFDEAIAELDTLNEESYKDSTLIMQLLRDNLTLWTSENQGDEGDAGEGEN
Experiment: pull-down; 10 µg GST-14-3-3β on glutathione Sepharose 4B beads mixed with 300 µg protein of lysates of HEK-293 cells expressing CD44-CP1 or Flag-CP1, overnight at 4°C; washed thrice in PBS; immunoblot with anti-TSC2
Conditions: one partner purified

B1: tuberous sclerosis complex 2 (TSC2) tumor suppressor (natural protein)
chain: not shown
notes: TSC2 (tuberin), endogenous in HEK-293 cells; also called tuberin; source: endogenous, HEK-293 lysate
B1 was tested, and the “fold enhanced binding in Flag-CP1 expressing cells relative to cells expressing CD44-CP1” value was about 2 fold.
